Patent publication US20260125455A1 (CLEVELAND CLINIC FOUNDATION, published 2026)

B1: C601HFKI HuG4K (antibody, human IgG4 S228P, kappa)
heavy: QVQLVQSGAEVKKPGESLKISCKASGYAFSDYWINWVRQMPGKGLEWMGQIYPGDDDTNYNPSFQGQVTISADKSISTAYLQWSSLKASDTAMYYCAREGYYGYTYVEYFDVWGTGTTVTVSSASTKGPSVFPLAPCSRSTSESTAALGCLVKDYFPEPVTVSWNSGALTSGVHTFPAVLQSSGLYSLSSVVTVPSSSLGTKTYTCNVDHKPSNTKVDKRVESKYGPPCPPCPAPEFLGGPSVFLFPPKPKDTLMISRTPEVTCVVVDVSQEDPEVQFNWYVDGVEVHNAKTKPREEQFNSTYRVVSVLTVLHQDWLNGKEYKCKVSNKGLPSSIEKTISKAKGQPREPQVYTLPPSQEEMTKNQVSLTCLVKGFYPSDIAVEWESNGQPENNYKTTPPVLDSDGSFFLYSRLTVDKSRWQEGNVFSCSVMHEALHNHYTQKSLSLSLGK
light: EIVLTQSPATLSLSPGERATLSCRASSSVSYLHWYQQKPGQSPRLWIYDTSKRATGIPARFSGSGSGTDYTLTISSLEPEDFAVYYCQQWTSNPLTFGQGTKLEIKRTVAAPSVFIFPPSDEQLKSGTASVVCLLNNFYPREAKVQWKVDNALQSGNSQESVTEQDSKDSTYSLSSTLTLSKADYEKHKVYACEVTHQGLSSPVTKSFNRGEC
B2: C601HPKI HuG4K (antibody, human IgG4 S228P, kappa)
heavy: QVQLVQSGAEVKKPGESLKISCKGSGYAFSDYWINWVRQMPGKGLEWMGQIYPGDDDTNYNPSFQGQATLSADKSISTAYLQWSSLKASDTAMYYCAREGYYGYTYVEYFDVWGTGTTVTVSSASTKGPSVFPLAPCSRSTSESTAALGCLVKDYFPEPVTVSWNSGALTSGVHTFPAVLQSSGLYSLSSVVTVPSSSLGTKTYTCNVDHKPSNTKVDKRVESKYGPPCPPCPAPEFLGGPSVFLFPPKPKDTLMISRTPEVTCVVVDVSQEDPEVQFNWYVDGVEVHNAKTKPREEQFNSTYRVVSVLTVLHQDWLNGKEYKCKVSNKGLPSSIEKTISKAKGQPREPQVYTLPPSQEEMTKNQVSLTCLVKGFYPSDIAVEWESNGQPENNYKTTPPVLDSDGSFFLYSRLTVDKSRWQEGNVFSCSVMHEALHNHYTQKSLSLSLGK
light: B1 light
B3: MoC601 HuG1KFab (Fab, V domains shown)
VH: QVQLQQSGAELVKPGASVKISCKASGYAFSDYWMNWVKQRPGKGLEWIGQIYPGDDDTNYNGKFKGKATLTADKSSSTAYMQLSSLTSEDSAVYFCAREGYYGYTYVEYFDVWGTGTTVTVSS
VL: QIVLTQSPAIMSVSPGEKVTLTCSASSSVSYMHWYQQKSGTSPKRWIYDTSKLASGVPARFSGSGSGTSYSLTISSMEAEDAATYYCQQWTSNPLTFGAGTKLELRR
notes: also called chimeric Fab; Fab molecule

How the values were obtained:
[1] = biological target: T1, human complement protein C6 (human, UniProt P13671 22-934); assay: SPR (Biacore 8K)
T1 construct: also called human C6; C6 antigen
Experimental: (§1) The kinetics of C6 binding was compared for the purified chimeric and lead humanized C601 using surface plasmon resonance (SPR, Biacore 8K). IgG were captured on a protein G sensor chip and binding of C6 measured using a three-fold concentration series of C6 from 0.03 nM-25 nM (FIG. 5). In a second experiment, a two-fold concentration series from 0.31 nM-20 nM C6 was used (FIG. 6). For all antibodies, binding of C6 occurred in a concentration-dependent manner and data could be fitted using a 1:1 model to calculate the association rate (kₒₙ), dissociation rates (kd) and affinity constant (KD). The kinetic data are shown in Table 5, which indicates only small differences between the parameters determined from the two independent experiments.
(§2) Binding ELISAs used Nunc Maxisorp 384-well plates, wells coated with C6, C5b,6 complex or C5 (Complement Technology Inc, TX) and goat anti-human IgG (Fab specific) peroxidase secondary antibodies (Sigma-Aldrich, A0293) for detection. For the thermal stability assay, IgG supernatants were diluted to their EC₈₀ concentration, incubated at different temperatures for 10 min and C6 binding measured by ELISA with the binding signal plotted against temperature. Kinetics of C6 binding were measured by capturing antibodies from supernatant samples using Protein G biosensors and performing a 20 min association step with 2.5 nM C6 and a 20 min dissociation step using the Octet RED96. Precise kinetic measurements were obtained by surface plasmon resonance (Biacore 8K, Cytiva). The IgG were captured on a protein G sensor chip. Binding of C6 measured using a three-fold concentration series of C6 from 0.03 nM-25 nM and data were fitted using a 1:1 model in two independent experiments.

[2] = biological target: human complement protein C5 (human, UniProt P01031 19-673; P01031 678-1676); assay: ELISA, C5-coated wells
Experimental: The 20 purified antibodies were tested by ELISA for their abilities to bind human complement proteins C5, C5b6 and C6. The antibodies were divided into two sets for this analysis. MoC601 HuG4K and HuG4K isotype controls were included alongside each set, as was C601HFKC4 HuG4K (aka 3713) expression supernatant from the original transfection as an additional positive control. In addition, three humanized antibodies (C601HFKC4 HuG4K, C601HPKI HuG4K and C601HPKC4 HuG4K) were included within both sets to allow better comparison between the plates. The antibodies all show specificity for C6 with no detectable binding to C5. All humanized antibodies bind to C6 and to C6 as part of the C5b6 complex. The lower plateaus of the C5b6 complex binding curves are explained by less C6 protein being available for binding when wells are coated with C5b6 complex as opposed to C6 alone. […] The EC₅₀ values are included in the figure but slightly different plateau levels observed for the antibodies are influencing the apparent EC₅₀ values. However, it was noted that the EC₅₀ values tended to be lower on the plates for the second set of antibodies. For this reason, a subset of the 20 antibodies was tested in a further ELISA for binding to C6 and C5b6 complex.
as §2

[3] = biological target: T1, human complement protein C6; assay: ELISA, C6-coated wells, large-scale purified antibody
[4] = biological target: T1, human complement protein C6; assay: C6-binding ELISA, A650 nm; sample 'PBS' (28 days at 37 C)
Experimental: (§3) For the serum stability assessment, samples of the purified candidate antibodies are normally incubated in mouse, human and cynomolgus serum at 37 C for 28 days and then tested in an antigen-binding ELISA. Since the anti-C6 antibodies are expected to bind to both human and cynomolgus C6 but not mouse C6, we anticipated that incubating in human or cynomolgus sera would reduce ELISA binding due to occupation of the antibody binding sites by C6 protein from the sera. Therefore, the chimeric and humanized antibodies were tested with human and mouse sera and with human sera from which the C6 protein has been depleted. The C6-binding ELISA was then used to compare the binding abilities of the C601 antibodies that had been incubated in the 3 different sera to antibody samples that were incubated in PBS at 37 C or kept at 4 C (non-incubated).
(§4) The Uncle instrument (Unchained Labs) was used to monitor unfolding via intrinsic fluorescence and aggregation by static light scattering across a temperature gradient to obtain melting temperatures (Tₘ). […] Isoelectric points were determined by capillary isoelectric focusing using a PA800+ (Beckman Coulter). […]

[5] = biological target: T1, human complement protein C6; assay: C6-binding ELISA, A650 nm; sample 'mouse serum' (28 days at 37 C)
Experimental: as §3, with “The C6-binding ELISA was then used to compare the binding abilities of the C601 antibodies that had been incubated in the 3 different sera to antibody samples that were incubated in PBS at 37 C or kept at 4 C (non-incubated).” left out
as §2, with “Precise kinetic measurements were obtained by surface plasmon resonance (Biacore 8K, Cytiva). The IgG were captured on a protein G sensor chip. Binding of C6 measured using a three-fold concentration series of C6 from 0.03 nM-25 nM and data were fitted using a 1:1 model in two independent experiments.” left out

[6] = biological target: T1, human complement protein C6; assay: C6-binding ELISA, A650 nm; sample 'PBS, non-incubated' (kept at 4 C)
Experimental: (§5) The C6-binding ELISA was then used to compare the binding abilities of the C601 antibodies that had been incubated in the 3 different sera to antibody samples that were incubated in PBS at 37 C or kept at 4 C (non-incubated).
as §2, with “Precise kinetic measurements were obtained by surface plasmon resonance (Biacore 8K, Cytiva). The IgG were captured on a protein G sensor chip.” left out
(§6) The Uncle instrument (Unchained Labs) was used to monitor unfolding via intrinsic fluorescence and aggregation by static light scattering across a temperature gradient to obtain melting temperatures (Tₘ). […] Isoelectric points were determined by capillary isoelectric focusing using a PA800+ (Beckman Coulter).

[7] = biological target: T1, human complement protein C6; assay: SPR (Biacore 8K), IgG on protein G chip, C6 0.03-25 nM 3-fold series, 1:1 fit
Experimental: as §1, §2

[8] = biological target: T1, human complement protein C6; assay: SPR (Biacore 8K), IgG on protein G chip, C6 0.31-20 nM 2-fold series, 1:1 fit
Experimental: as §1

[9] = biological target: T1, human complement protein C6; assay: C6-binding ELISA, A650 nm; sample 'C6-depleted human serum' (28 days at 37 C)
Experimental: as §3, with “The C6-binding ELISA was then used to compare the binding abilities of the C601 antibodies that had been incubated in the 3 different sera to antibody samples that were incubated in PBS at 37 C or kept at 4 C (non-incubated).” left out
as §2, with “Precise kinetic measurements were obtained by surface plasmon resonance (Biacore 8K, Cytiva). The IgG were captured on a protein G sensor chip. Binding of C6 measured using a three-fold concentration series of C6 from 0.03 nM-25 nM and data were fitted using a 1:1 model in two independent experiments.” left out

[10] = biological target: T1, human complement protein C6; assay: C6-binding ELISA, A650 nm; sample 'human serun' (human serum, 28 days at 37 C)
Experimental: as §3, with “The C6-binding ELISA was then used to compare the binding abilities of the C601 antibodies that had been incubated in the 3 different sera to antibody samples that were incubated in PBS at 37 C or kept at 4 C (non-incubated).” left out
as §2, with “Precise kinetic measurements were obtained by surface plasmon resonance (Biacore 8K, Cytiva). The IgG were captured on a protein G sensor chip. Binding of C6 measured using a three-fold concentration series of C6 from 0.03 nM-25 nM and data were fitted using a 1:1 model in two independent experiments.” left out

[11] = biological target: T1, human complement protein C6; assay: C6-binding ELISA, A650 nm; sample 'PBS' (28 days at 37 C) [cont.) D]
Experimental: as §3, with “The C6-binding ELISA was then used to compare the binding abilities of the C601 antibodies that had been incubated in the 3 different sera to antibody samples that were incubated in PBS at 37 C or kept at 4 C (non-incubated).” left out
as §2, with “Precise kinetic measurements were obtained by surface plasmon resonance (Biacore 8K, Cytiva). The IgG were captured on a protein G sensor chip. Binding of C6 measured using a three-fold concentration series of C6 from 0.03 nM-25 nM and data were fitted using a 1:1 model in two independent experiments.” left out

[12] = biological target: T1, human complement protein C6; assay: C6-binding ELISA, A650 nm; sample 'mouse serum' (28 days at 37 C) [cont.) D]
Experimental: as §3, §4

[13] = biological target: T1, human complement protein C6; assay: C6-binding ELISA, A650 nm; sample 'PBS, non-incubated' (kept at 4 C) [cont.) D]
Experimental: as §5
as §2, with “Precise kinetic measurements were obtained by surface plasmon resonance (Biacore 8K, Cytiva). The IgG were captured on a protein G sensor chip.” left out
as §6

[14] = biological target: T1, human complement protein C6; assay: C6-binding ELISA, A650 nm; sample 'C6-depleted human serum' (28 days at 37 C) [cont.) D]
Experimental: as §3, §4

[15] = biological target: T1, human complement protein C6; assay: C6-binding ELISA, A650 nm; sample 'human serun' (human serum, 28 days at 37 C) [cont.) D]
Experimental: as §3, §4

[16] = biological target: T1, human complement protein C6; assay: ELISA, purified protein, anti-human IgG (Fab-specific) detection
Experimental: The binding of the purified chimeric molecules, MoC601 HuG4K and MoC601 HuG1KFab, was also confirmed by ELISA, where the anti-human IgG (Fab-specific) secondary reagent was used. The control mouse antibody bound as previously (EC₅₀ 0.11 nM). The EC₅₀ for purified MoC601 HuG4K (0.27 nM) was similar to that obtained for the MoC601 HuG4K supernatant sample above. […] The EC₅₀ value for the Fab molecule (0.48 nM) was higher than for the antibody, which would be expected since the Fab is unable to bind bivalently to the antigen on the well. A C6-binding assay was also set up on the Octet RED384 instrument. […] However, MoC601 MoG1K could be stably loaded onto anti-mouse Fc (AMC) biosensors. Concentrations of the mouse and chimeric antibodies were adjusted to give similar levels of loading on to the AMC and […]

T1 sequence (P13671 22-934 limits assumed): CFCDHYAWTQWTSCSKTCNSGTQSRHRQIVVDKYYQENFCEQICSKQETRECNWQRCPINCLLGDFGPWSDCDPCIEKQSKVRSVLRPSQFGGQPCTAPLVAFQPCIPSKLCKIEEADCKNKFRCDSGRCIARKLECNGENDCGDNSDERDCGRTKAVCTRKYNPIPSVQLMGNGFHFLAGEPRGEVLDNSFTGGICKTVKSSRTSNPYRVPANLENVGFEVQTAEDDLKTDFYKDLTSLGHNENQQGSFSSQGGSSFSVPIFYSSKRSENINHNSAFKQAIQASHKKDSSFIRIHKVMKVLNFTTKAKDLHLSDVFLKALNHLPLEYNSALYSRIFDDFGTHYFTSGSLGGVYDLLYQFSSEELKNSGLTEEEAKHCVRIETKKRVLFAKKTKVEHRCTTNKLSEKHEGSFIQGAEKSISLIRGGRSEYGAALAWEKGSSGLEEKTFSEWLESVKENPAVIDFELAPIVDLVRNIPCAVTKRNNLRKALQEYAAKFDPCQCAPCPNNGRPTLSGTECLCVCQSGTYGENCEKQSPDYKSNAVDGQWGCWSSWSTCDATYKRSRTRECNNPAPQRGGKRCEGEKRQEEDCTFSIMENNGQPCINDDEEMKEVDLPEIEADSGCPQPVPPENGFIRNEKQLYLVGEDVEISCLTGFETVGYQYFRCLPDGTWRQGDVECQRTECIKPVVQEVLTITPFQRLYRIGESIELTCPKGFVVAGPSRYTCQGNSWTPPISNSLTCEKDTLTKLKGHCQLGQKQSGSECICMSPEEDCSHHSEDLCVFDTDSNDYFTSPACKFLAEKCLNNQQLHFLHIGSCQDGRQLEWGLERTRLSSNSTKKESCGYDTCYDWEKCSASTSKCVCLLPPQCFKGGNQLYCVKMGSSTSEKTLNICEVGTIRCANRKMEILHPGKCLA
human complement protein C5, sequence (P01031 19-673 limits assumed, chain 1 of 2): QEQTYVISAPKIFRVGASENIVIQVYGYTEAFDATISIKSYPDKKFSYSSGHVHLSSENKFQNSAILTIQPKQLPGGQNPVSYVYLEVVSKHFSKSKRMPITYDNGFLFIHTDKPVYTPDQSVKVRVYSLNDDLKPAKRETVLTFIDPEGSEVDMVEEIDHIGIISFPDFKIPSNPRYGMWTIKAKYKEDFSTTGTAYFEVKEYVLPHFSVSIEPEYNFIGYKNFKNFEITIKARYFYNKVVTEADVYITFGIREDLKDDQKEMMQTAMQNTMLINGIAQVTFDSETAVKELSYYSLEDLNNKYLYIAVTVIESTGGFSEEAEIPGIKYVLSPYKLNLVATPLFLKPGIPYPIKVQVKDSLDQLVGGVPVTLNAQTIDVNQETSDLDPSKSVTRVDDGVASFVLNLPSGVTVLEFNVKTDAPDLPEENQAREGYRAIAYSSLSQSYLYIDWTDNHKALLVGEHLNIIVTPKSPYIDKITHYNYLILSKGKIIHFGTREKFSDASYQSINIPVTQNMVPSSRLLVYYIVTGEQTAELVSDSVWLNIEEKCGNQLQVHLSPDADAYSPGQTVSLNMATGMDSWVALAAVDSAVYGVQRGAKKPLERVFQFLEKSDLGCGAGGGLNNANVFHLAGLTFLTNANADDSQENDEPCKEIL
human complement protein C5, sequence (P01031 678-1676 limits assumed, chain 2 of 2): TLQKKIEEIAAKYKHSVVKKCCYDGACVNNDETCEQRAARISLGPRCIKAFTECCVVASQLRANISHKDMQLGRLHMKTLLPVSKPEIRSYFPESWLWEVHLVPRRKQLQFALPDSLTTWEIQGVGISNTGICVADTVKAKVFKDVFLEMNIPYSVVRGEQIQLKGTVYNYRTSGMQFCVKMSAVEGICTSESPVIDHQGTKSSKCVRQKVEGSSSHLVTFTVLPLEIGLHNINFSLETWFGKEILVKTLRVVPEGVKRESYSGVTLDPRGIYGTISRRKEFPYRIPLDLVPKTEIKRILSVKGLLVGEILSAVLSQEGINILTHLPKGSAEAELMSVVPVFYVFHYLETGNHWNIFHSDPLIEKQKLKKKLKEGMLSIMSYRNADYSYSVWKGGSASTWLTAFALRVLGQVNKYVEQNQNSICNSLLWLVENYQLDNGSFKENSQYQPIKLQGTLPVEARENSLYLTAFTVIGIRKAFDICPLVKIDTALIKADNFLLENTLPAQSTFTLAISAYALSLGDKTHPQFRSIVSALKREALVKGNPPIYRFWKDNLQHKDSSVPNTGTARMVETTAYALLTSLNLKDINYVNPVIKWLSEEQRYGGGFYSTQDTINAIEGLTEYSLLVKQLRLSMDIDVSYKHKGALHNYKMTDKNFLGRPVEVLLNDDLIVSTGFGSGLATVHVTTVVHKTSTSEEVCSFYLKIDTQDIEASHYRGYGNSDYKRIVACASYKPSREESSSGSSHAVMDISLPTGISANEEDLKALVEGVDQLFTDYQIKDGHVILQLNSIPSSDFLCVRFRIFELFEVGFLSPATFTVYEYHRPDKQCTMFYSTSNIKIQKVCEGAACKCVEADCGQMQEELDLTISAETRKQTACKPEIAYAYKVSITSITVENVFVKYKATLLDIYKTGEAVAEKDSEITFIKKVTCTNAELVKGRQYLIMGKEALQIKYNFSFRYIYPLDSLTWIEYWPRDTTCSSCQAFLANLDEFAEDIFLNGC

Row | Binder | Kd [1] [nM] | binding result [2] | EC50 [3] [nM] | EC50 [4] [nM] | EC50 [5] [nM] | EC50 [6] [nM] | Kd [7] [nM] | koff [7] [s⁻¹] | kon [7] [M⁻¹ s⁻¹] | Kd [8] [nM] | koff [8] [s⁻¹] | kon [8] [M⁻¹ s⁻¹] | EC50 [9] [nM] | EC50 [10] [nM] | EC50 [11] [nM] | EC50 [12] [nM] | EC50 [13] [nM] | EC50 [14] [nM] | EC50 [15] [nM] | EC50 [16] [nM]
1 | B1 | 0.348 | no binding | 0.22 | 0.22 | 0.18 | 0.2 | 0.348 | 0.000308 | 890000 | 0.279 | 0.000317 | 1.14e+06 | 0.19 | 0.2 |  |  |  |  |  | 
2 | B2 | 0.433 | no binding | 0.17 |  |  |  | 0.433 | 0.000445 | 1.03e+06 | 0.295 | 0.000361 | 1.23e+06 |  |  | 0.17 | 0.15 | 0.14 | 0.19 | 0.19 | 
3 | B3 |  |  |  |  |  |  |  |  |  |  |  |  |  |  |  |  |  |  |  | 0.48
